Measured values reported in patent US20230292718A1, “METHOD FOR CONSTRUCTING MODEL OF VITILIGO AND THE USE OF THE MODEL” (NATIONAL INSTITUTE OF BIOLOGICAL SCIENCES, BEIJING, priority 2020, published 2023).

B1: CXCL9: recombinant chemokine protein added to lower chamber of transwell (protein, UniProt P18340 22-126, looked up)
C-X-C motif chemokine 9: TLVIRNARCSCISTSRGTIHYKSLKDLKQFAPSPNCNKTEIIATLKNGDQTCLDPDSANVKKLMKEWEKKISQKKKQKRGKKHQKNMKNRKPKTPQSRRRSRKTT
B2: CCL19: recombinant chemokine protein added to lower chamber of transwell (protein, UniProt O70460 26-108, looked up)
C-C motif chemokine 19: GANDAEDCCLSVTQRPIPGNIVKAFRYLLNEDGCRVPAVVFTTLRGYQLCAPPDQPWVDRIIRRLKKSSAKNKGNSTRRSPVS
B3: IFN-γ: recombinant interferon gamma used to treat fibroblasts in vitro (protein, UniProt P01580 23-155, looked up)
Interferon gamma: HGTVIESLESLNNYFNSSGIDVEEKSLFLDIWRNWQKDGDMKILQSQIISFYLRLFEVLKDNQAISNNISVIESHLITTFFSNSKAKKDAFMSIAKFEVNNPQVQRQAFNELIRVVHQLLPESSLRKRKRSRC
B4: CXCL10: recombinant chemokine protein added to lower chamber of transwell (protein, UniProt P17515 22-98, looked up)
C-X-C motif chemokine 10: IPLARTVRCNCIHIDDGPVRMRAIGKLEIIPASLSCPRVEIIATMKKNDEQRCLNPESKTIKNLMKAFSQKRSKRAP

How the values were obtained:
[1] = test system: activated CD8+OT1 T cells; assay: T cell transwell migration assay with recombinant chemokines; format: cell-based, mouse; conditions: recombinant protein at increasing concentrations in lower chamber, 3 hr incubation
Procedure: Transwell migration of lymphocytes was performed with mature CTLs and concentrated fibroblast conditioned medium. In brief, splenocytes isolated from OT-1 mice were stimulated with OVA257-264 for 3 days in the presence of 10 ng/mL IL2. Cells were centrifuged and cultured in fresh medium containing 10 ng/mL IL2 for 1 more day, after which most of the cells in the culture were CTLs. To measure CD8+ T cell cytotoxicity, B16F10 expressing OVA peptide was mixed in the killing medium at the ratios of 1:1. After 6 hs, the cytotoxic efficiency was confirmed by B16F10 cell survival.
To further identify the secreted factors involved in this process, we first performed RNA-seq analysis of fibroblasts from WT and IFNGR1 KO mice at Day 33 after vitiligo induction, alongside WT mice without vitiligo induction (FIG. 6C). […] Next we compared the single cell transcriptome data of progressive state vitiligo patients fibroblasts and healthy donors fibroblasts. Unsupervised clustering performed by spectral clustering method separates fibroblasts into 4 sub-clusters in healthy donors and 5 sub-clusters in progressive state vitiligo patients (FIG. 6D). […] Comparison of the human and mouse vitiligo fibroblasts specific secreted protein gene signatures, we identified 29 overlapped genes. Among them 11 are conserved major histocompatibility complex genes and 6 are chemokines, including CCL5, CCL8, CCL19, CXCL3, CXCL9 and CXCL10 (FIG. 6F-6G). […]
RFP expressing WT or IFNGR1 KO fibroblasts were intradermally injected into the tail skin of IFNGR1 KO mice. After vitiligo induction on the host mice, CD8+ T cell infiltration was analyzed by whole-mount immunofluorescent staining and quantification. […] Cells were collected from both chambers and counted by flow cytometry after 3 hr incubation. […] After 3 hr incubation, CD8+ T cell migration index was calculated by dividing the number of migrated cells (cells in lower chamber) using the number of migrated plus unmigrated cells (cells in upper chamber+lower chamber).

[2] = test system: primary mouse fibroblasts; assay: QPCR analysis of IFN-γ treated primary fibroblasts using target gene CXCL10 as readout; format: cell-based
Procedure: Total RNAs were isolated from FACS-sorted cells with Trizol followed by extraction using Direct-Zol RNA mini-prep Kit (Zymo research). For cDNA synthesis, equal amounts of RNA were reverse-transcribed by Oligo-dT (Vazyme, R222-01). Expression levels were normalized to the expression of PPIB. Real time PCR was conducted using a CFX96TM Real-Time system (Bio-RAD) with Power SYBRR Green PCR Master Mix (Life Technologies). All primer pairs were designed for the same cycling conditions: 10 min at 95° C. for initial denaturing, 40 cycles of 10 s at 95° C. for denaturing, 30 s at 62° C. for annealing, and 10 s at 65° C. for extension. The primers were designed to produce a product spanning exon-intron boundary in each of the target genes.
Primary fibroblasts isolated from WT or IFNGR1 KO newborn mice dorsal skin were infected with lentivirus expressing shRNA and RFP in vitro. The RFP+ fibroblasts were then intradermally injected into P56 mice tail skin. The presence and location of injected cells were examined 2 weeks later. […] Primary mouse fibroblasts were treated with IFN-γ of increasing dosage and duration time in vitro. Treatment time ranges from 6 hrs to 48 hrs; and IFN-γ concentration gradients range from 5 U/mL to 200 U/mL. […] Primary mouse fibroblasts were treated with increasing dosage of IFN-γ for 6 hrs in vitro. IFN-γ concentration gradients range from 5 U/mL to 1000 U/mL. […]

3T3 fibroblasts = assay: qPCR analysis of shRNA effect in blocking IFN-γ response (GBP2 reporter); format: cell-based, mouse; conditions: 6 hrs IFN-γ treatment, cells expressing scrambled shRNA

| Molecule | CD8+ T cell migration (migration index) [1] | IFN-γ concentration inducing maximum activation (CXCL10 expression level) ([2]; 6 hrs in vitro, gradient 5 U/mL to 1000 U/mL) [U/mL] | CXCL10 expression ([2]; IFN-γ 5 U/mL to 200 U/mL, 6 hrs to 48 hrs) | GBP2 expression level (3T3 fibroblasts) |
| --- | --- | --- | --- | --- |
| B1 | induce CD8+ T cell migration in a dosage dependent manner | – | – | – |
| B2 | induce CD8+ T cell migration in a dosage dependent manner | – | – | – |
| B3 | – | 1000 | induced by IFN-γ in a dosage dependent manner | significantly increased |
| B4 | induce CD8+ T cell migration in a dosage dependent manner | – | – | – |
